Assay results published in article PMC10946529.

Target: T1, [FeFe]-hydrogenase CaHydA from Clostridium acetobutylicum (Clostridium acetobutylicum) (UniProt Q59262)
T1 sequence: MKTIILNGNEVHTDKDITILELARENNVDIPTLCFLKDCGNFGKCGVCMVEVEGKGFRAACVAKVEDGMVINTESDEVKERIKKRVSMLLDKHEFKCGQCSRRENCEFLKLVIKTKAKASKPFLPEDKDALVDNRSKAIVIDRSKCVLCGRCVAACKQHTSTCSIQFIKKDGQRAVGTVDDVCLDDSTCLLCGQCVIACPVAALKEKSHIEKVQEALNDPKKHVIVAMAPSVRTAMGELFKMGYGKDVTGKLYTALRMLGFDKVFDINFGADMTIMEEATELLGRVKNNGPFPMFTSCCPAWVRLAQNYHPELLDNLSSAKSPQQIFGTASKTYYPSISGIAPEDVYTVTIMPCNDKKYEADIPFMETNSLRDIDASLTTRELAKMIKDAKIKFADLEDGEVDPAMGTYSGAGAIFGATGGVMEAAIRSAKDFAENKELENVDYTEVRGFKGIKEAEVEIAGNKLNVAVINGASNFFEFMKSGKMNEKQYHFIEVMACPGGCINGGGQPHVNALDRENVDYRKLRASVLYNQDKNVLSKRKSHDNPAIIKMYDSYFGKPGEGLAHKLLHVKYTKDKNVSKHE

Ac-GCGGGCGGCGGCGY-NH2 (also: [4Fe4S] cluster coordinated by the four Cys) [[4Fe4S]-peptide maquette Mq5 (Ac-…-NH2)]
turnover frequency (TOF) of electron transfer from CaHydA to the Mq5 cluster in H2 oxidation, assuming cluster concentration equal to the peptide concentration: 79 s⁻¹ | turnover frequency (TOF) of electron transfer from CaHydA to the Mq5 cluster in H2 oxidation, corrected for about 40 % cluster formation relative to FdM1: 31 s⁻¹
